{
  "source": "the DeepSol protein solubility set",
  "data": [
    {"assay": "soluble on expression in E. coli; label from the status in PepcDB or PDB records", "values": [
      {"sequence": "MNKKSSSMVNMPAPREPINQKIDTNNALVLNHNAIYEQRLAEITQSNTCDKAIVTVNPYGTAPLSLYLGVWMDEAAALEINVVDSEATTEEVRYQYDVHPGANLIPVCGMVSAVNNQITLRLASQIVGQYTVMTDALPPTDSANVSLGFPIISVSCPAQQASLMEEGLYFSTYFDRYNLAFDHNGIVRWYVSQEIPSYNFVRMDNGHFLATSQGINHCLNMYEFDIMGRVYTVYLLDNEFHHSILPIENNLAIAPSEYSNGRPDGYSTGKDGVSIINLSTGLEVAYYDMLYVMDYSRSPRPSGSAPGQDVSMDDWLHINQSYINEPNNLLICSGRHQSAIFGVNVDSGELRFIMANHEDWSDEFKQYLLTPVDDDGVPLYDLTSPGGIDAADKNFWTWGQHNIVEIPNDEPGILEFMVFDNGNYRSREDAKSLLPLDNFSRVVQFKINLNTMTVTRPYEYGKTEVGNRGYSSFVSAKHLLTNGHLVIHFGATTVDEFEHTITAQPGSSDLVDPDEGQQALGRLVLQEINKETKEVLFEAMVTSGYFKNEETNGTNYRYDISAFRVYKMPLFA", "soluble on expression in E. coli": "not soluble"},
      {"sequence": "MSLEKSYWEQAHLQLPLKYTWKISRNASTEKINVIVFLCIDGRTYPGEAAPNVRYGESVELIDLQFKHFQTVWKDSLLQDEHAYNDVLDGLKLCQSLRFALESAYVHARCDKDPAFFERYTGIKMHTSPLATSYTLPIMDPGQIQEFIQTHDLTRFDTLKIKTGKEESKELIKTASRYFDKMIRVDANEAWTDPDLLIKELEELKRIPLEFIEQPFESAQKDAYKYFKKYSKIPVIADESITFAPDLKEIKELFHGVNMKLMKAGGYREGANILLKSKELGLKTMVGCMVETTLGIRSGMWISGHSDYIDLDGSFVIDNEPFKLVSENLGRLVIKQVNFFIEKWQKEGHHHHHH", "soluble on expression in E. coli": "soluble"},
      {"sequence": "MGSDKIHHHHHHMPETAHGVPVSTVKPDGAAMALKSKLLLIILDGVPYRNWRRLMGNLEGWVQSGEARVWKMRSVLPSTSACCYASIHTGVSPQVHGILSNENRFRVGQPDIFSEVSKAGGKTGAVTHSYWSEFFRSYPFDLVEDMEYDEPGGPITHGRFHTMTGYNARNQMTPSDVDLFATLTMLTKRHGIDYGILHTCTLDSMGHRFGNDCHEMDHAVYAMDGMLAAFLPGWIAAGYEVMVTADHGQTDRGHHGGHDDEMQDFALYYFGQGQGPETDTLLDQLQLAPTVLSRLGVPVPATMKAKPFLS", "soluble on expression in E. coli": "not soluble"},
      {"sequence": "MGSDKIHHHHHHMDRLIYTAMTGLKHIMEQQSTTANNLANATTTGFRAQIDSFRAVPVLSDGLPTRAFVVDATVGTNFNSGVINTTGRELDLAIRDQGWFAVQRPDGTEAYTRNGNFKLNENGVLQTQDGMMVLGDNGPITIPLEAKVAFANDGMVSAVATNVVPLFTNMIGRLKLVNPGDDNLVRGPDGLFETRNREPVPASANVTIVSGALEGSNVNVVEEMVNMISQARQFDLQTKLIQNAENNATKAGQIFSLS", "soluble on expression in E. coli": "not soluble"},
      {"sequence": "MYNSATVIYQNLLKSTPKKASEYYYYLGDICWRKEKTDSAKYYFMEGIKTDETYAMNYVGIGIITMKSNATEGQRSFDKALQMTSQKNSQVLNAIGEYYILEADKAELPKGIALLKKSTEIDAKNAMSWILLGDAYGKQAEGSKQAESYGKAANLFHSVPLLKMKYGKMYAAARNKDLSIKYYNEGLAADPTYGPIYRELGDLYNRFRQYDLAIQNYKKYLTYIDSNDDVEFRYADFLFKNNNYAEAIEVFNKLEAKKYNSPYIYNRRAVCYYELAKYDLAQKDIETYFSKVNATKAKLEHHHHHH", "soluble on expression in E. coli": "not soluble"},
      {"sequence": "MSPDFLVTHSGGFHADELLSSVILTRLFPQARLIRSRAPEWITPAPGRIIYDVGGAYDPAAGIFDHHQRGAPQRDDGQPYSSFGLIWKHYGREYLAASGLPDHHVEALHAAFDTGFVLPIDLTDNGALSPSGPLAGLMLPALLETLKPVFDEAEPAADDRAFHAALAIARSFVDAGIAQRAAKLRAEAIVYRAIGDAGQGRILELPRGMPFRPAIVKAGADHLLFVVHPREKDWCVTGIRRAEDGFELRADLPAAWAGLTNGELEAVCGIEGASFCHNGRFVAAAKTRDAALAMAELAVQEALSIGVLEHHHHHH", "soluble on expression in E. coli": "soluble"},
      {"sequence": "MAHHHHHHMLRHLFRCTAAWAPKRSATREQRLKERVAARMELEAQVKSRVACYPHRSLTRPALRLERHQVNTPLFHSQLLNLNKMATDLQCISFSAPKGHWDAAIVLIKGHPNEANFEVWVNPTVPGYDDRHSIAPMYGMWENCISCGACTAWVIRPQSITCSGLDEYGNEKTEVLDGMRARCLMHELDHLSGRTILDQAQGPEFIVSGIAMGQRDLWPPNFPSAEAYMTSPHQFFDYVKNGPIIPPG", "soluble on expression in E. coli": "not soluble"},
      {"sequence": "MKKIQRTQTRDHITQMLRYEILSGNIKAGEELAQESIAEQLGLSRMPVREALQSLEQEGFLIRLPNRHMQVAHLEADRVSHIFRVIAAMAAEMFSLIPSEVGDALLIRAQALAVAEDKSCELECHAMLISYVNNRYLEKVYQQFLDGYVSYVILHLKKDNQESAQLFAELADVIRQGRRDEIGQVMQRYFLSLAEIMRQHMKDWESAEA", "soluble on expression in E. coli": "not soluble"},
      {"sequence": "GSHMSETDLLMKMVRQPVKLYSVATLFHEFSEVITKLEHSVQKEPTSLLSEENWHKQFLKFAQALPAHGSASWLNLDDALQAVVGNSRSAFLHQLIAKLKSRHLQVLELNKIGSEPLDLSNLPAPFYVLLPESFAARITLLVQDKALPYVRVSMEYWHALEYKGELNDPAANKARKEAELAAATAEQ", "soluble on expression in E. coli": "soluble"},
      {"sequence": "MGSDKIHHHHHHMNLPSILVIDDLPDNFDVIETLLSEQDYTLHYVASGQEAIASLNLFQPDLILLDVMMPGMDGIEVCQRIKAMPQWQSVPIIMVTALTAKEDLARCLKSGADDFISKPINALELRARLHSMLRIKQQYDKIQTLSNIQTSTIKVLESTLDELRGNLAAALPHELNTPLNGIVGTISILMADIENMDTGEIQELLGWVDLSARNLERLIKQLLLYLELELSTNQQQNIASESTHFSIAVIEAILQSHAPSVNRRDDLMFAIEEAEVSISARYLAIIIYELVDNALKFSRRGTTIKISSQVVAGMLNVYIHDFGRGMTEEQISKIGAFMQFERKTYEQQGIGMGLKLAKQIIESHGGLFSISSVYKKETMVHIALPIAYSRYLS", "soluble on expression in E. coli": "not soluble"},
      {"sequence": "MSSLCPYTGRPTGLFRDFEDMMPYWAQRHSMLNNFNNIVPQQLNEVENTAQKFCVKLDVAAFKPEELKVNLEGHVLTIEGHHEVKTEHGFSKRSFTRQFTLPKDVDLAHIHTVINKEGQMTIDAPKTGSNTTVRALPIHTSAGHAVTQKPSSTTTTGKH", "soluble on expression in E. coli": "not soluble"},
      {"sequence": "MNLFYNPKYVGDVAFLQIEPVEGELNYNKKGNVVEITNEGNVVGYNIFEISKDITIEEKGHIKLTDELVNVFQKRISEAGFDYKLNADLSPKFVVGYVETKDKHPDADKLSVLNVNVGNDTLQIVCGAPNVEAGQKVVVAKVGAVMPSGMVIKDAELRGVASSGMICSMKELNLPNAPEEKGIMVLNDSYEIGQAFFELEHHHHHH", "soluble on expression in E. coli": "soluble"},
      {"sequence": "MGSDKIHHHHHHMKFNIKSVKNYRLPMSWQHIQKGTMYCSLINEFFADWFQKVLGDQWLMIGGLSAELELNLPLRHKIILMPEMTKNPTALFPANQNVTEEISLIQADPLQLPFVQQSIHACVLANTLNFTQHSHQLLGEIARVLENDGYLFISLFNPYSPLIFKQNLNHKNQTALPFKQYFTWRILDWIKLLNFEILDQVNLSEKKQQDCFSPLTLIVAQKRTYPFPLYKIKNKIVPYQSFQFMGENTKNAT", "soluble on expression in E. coli": "not soluble"},
      {"sequence": "MNSGDNIIKKKSFTFAVRIVNLYKVLSSEIKEFVMSKQLLRSGTSVGANIREALNAQSKPGFIHKLAISQKECDETGYTNNVEFESMNTDAIELLKIVRSIIMTSKKNIIHNSLEHHHHHH", "soluble on expression in E. coli": "not soluble"},
      {"sequence": "MASIDRFQVMQEPELKILEHWFENEDTRRRMDGMLLLDEWYARVNKDKHDTVIMAYDGQLPAGMVVIEFGEERTYIGLIVNPLYRLKGYGKQILQKLMTEPDFTSVREWVACIEEDNRISLACFQAAGFTLEDTEPDEDGFLTLILRNLEHHHHHH", "soluble on expression in E. coli": "not soluble"},
      {"sequence": "MDVNTTYTKELSIIVPIYNEERELPELVRRLSAAAASITEDYELIFVNDGSRDGSMELLRSLCKGDDRFFYINLSRNFGHQIAVSAGLDHVRGKATVIIDGDLQDPPELIPELYAKYREGYEVVYAQRKHREGETWFKKATAKGFYRTMRKITSIDMPLDTGDFRLIDRKIVQCLREMPEQNKFLRGQIAWMGFRQTGVQFDRDERKYGQTNYPLRKMLALAIDGITGFSSRPLEWVAQ", "soluble on expression in E. coli": "not soluble"},
      {"sequence": "ELAAIQNLGGMDVLCTDKTGTITEDRVVLVQHLNPLGDLSDEVLNLAYLNSSYQTGWKNLMDIAVINFYEEHQWKTPFKNVTKIDEIPFDFSRRRLTVVVNADDHQLMITKGAVEEMEEVCTHAQINGEIVPLSTAVREELRRVNVQMNKQGMRVLAVAVKKDVHKEAVYSVEDEKEMTLIGFMGFLDP", "soluble on expression in E. coli": "not soluble"},
      {"sequence": "MGSDKIHHHHHHMQIVPLHSSHYPHIASVFHQAVRAAAGKGYTQAQCEAWSRGVRDRRYWRSRLGRSLVLVALNVDEVVGFIDCELEHPDKGYIGHLYVAPTHQGRGIGGKLLDALIRQAPALGIGSLTTDASLHSEPLFAAKGFSNVGRYFQQKSGQVLPGFAMTLPLPFYIDRMQGSDLASIARLFHEAVQGASEYYSEAERHAWSAALRDEATWQGKLAPSKVWVARKDSGIMGFINLLPKSIGEAEIDCLFTSPVLTRCGVATSLYWVLEQQARRDGVRRLSVEASYFARPFFQSRGFTELSRNEHPRHGQILVNFSMEKWLSRPEGG", "soluble on expression in E. coli": "not soluble"},
      {"sequence": "MSLVEKPVVIKFGGTSVRYAFEEALELVAKLHENMKIIVVVSALAGVTDCLLRLAKGDKSALLEIDEIHEELSQELNVQLEHLIHQLKKTINSKSSFPSEKAFIDEIASFGERFSAKLFSEGLKILGITARPVDSKDVLFVKGEFGNAEVEFKKSAQGVDVLYRMLRRGIVPVVTGYYGNLNGFRATFGRGGSDYSATSIASLVNAKAVLIMSDVEGIYTADPKLVPPARLIHYISYKEAKTAAKLGMKVLHPRAIDPVEGKIPVILGKTRDLKFGTLISHESQGIPIVTHKLLENHAEISVVSVKTNIPLPYEVYEEGDLYFKIKTSKDQFLEVLRDVHRRVVENENLHSSHDGELWTWVEGHHHHHH", "soluble on expression in E. coli": "soluble"},
      {"sequence": "MGSDKIHHHHHHMNKLEERSQHRKSRFRFLVISTFWRVLLLLKNDAEPLFHLGNIHYAYGHKASAMNYWKEAVSKNREHEKAWHNLVQCAVIQEEWEQAAEGLTILCRNHPTRFEYMSLYTHALKKLGKKEELEEWYLSHINGPHHEWAIEGLGMLYIRTRREIDAFKLLSPFVRKFPNRPVGLKILGISSIRTNQYEAGLTFLEKSLELKEDKEVKSLVDRVKRLKKVRGGNR", "soluble on expression in E. coli": "not soluble"},
      {"sequence": "MSLQEWTKEDSLRLRKLLDSDQELNLNQDAVRQIDFGSAVGTPRMSVEKKWMLPDESLPEALPKPKVVLSLMPYKANTPYNWDPVFQKKIRMDKNTWRGDPHYEMRHQRSYSNWAHNPMAGGVRKSLEEIRASGVRFRQLSERANGMMVNSVVMDSPIPLFGGSGVYINGGTIGGLDLMAVFTKNFWDKKGKERRERTLEVLRTYGDSTTVLINRPIEQIAREGHHHHHH", "soluble on expression in E. coli": "soluble"},
      {"sequence": "MTTMGEDEAPALPKKSPLPEKIDEADVDDDPDDKVIKIVVVGDGASGKTSICQRFAKESFDKSYHQTLGLDFFSRRITLPHEMQVLVQVWDIGGQSIAGEMIDKYLTGANIVFLVYDVTNSKSFENAVDWLSVVKKNTKSSETPVKLVLMGNKTDLEERRVVSVEAHKNFATSNDMMPTYVSAKTGDTVFLTFRQAVAEVLNVGLSRAEVEADIEIVQGSVIEQPKQSDASYARRSDQSRSTSVCSIT", "soluble on expression in E. coli": "soluble"},
      {"sequence": "MSRRNATSFVDNNTLTSSEGLTSGVFSWALERLPTCLREELQLPLTDTGSCWQTN", "soluble on expression in E. coli": "not soluble"}
    ]}
  ]
}
